B1: RAB40B (parent)
chain: YSLTTSSTHKRSSLRKVKLVRPPQ
B2: SLC35F2 (parent)
chain: QYLAERYKVNTPMLQSFINYCLLF

Variants of: B1
Experiment: protein stability index of a GFP-peptide fusion (GPS, HEK-293T) (PSI 1-6); higher = more stable
Details: c terminus: a fixed tail appended
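Further: lentivirally expressed fusions sorted by FACS into six bins by GFP to DsRed ratio, PSI derived from sequencing read proportions per bin multiplied by bin number.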

Variant | protein stability index
L3R | 3.34
L3M | 2.97
L3K | 3.43
L3V | 3.17
L3G | 3.18
L3E | 3.94
L3P | 2.96
L3Q | 3.31
L3I | 2.88
L3H | 3.06
L3Y | 2.24
L3T | 3.08
L3N | 3.3
L3S | 3.13
L3D | 3.7
L3C | 3
L3W | 2.02
L3A | 3.88
L3F | 2.57
Y1C | 3.16
Y1H | 3.46
Y1V | 2.74
Y1M | 3.2
Y1K | 3.61
Y1W | 3.19
Y1G | 3.75

Variant | protein stability index
Y1I | 3.15
Y1N | 4.04
Y1T | 3.66
Y1S | 4.16
Y1E | 4.12
Y1Q | 3.82
Y1R | 3.94
Y1F | 2.81
Y1A | 3.99
Y1D | 4.11
Y1P | 3.97
Y1L | 3.15
T5L | 2.91
T5K | 3.2
T5H | 2.81
T5D | 3.4
T5I | 1.86
T5S | 3.07
T5V | 2.79
T5N | 3.83
T5P | 3.05
T5Q | 3.44
T5G | 3.25
T5Y | 2.53
T5R | 3.43
T5A | 3.48

Variant | protein stability index
T5F | 2.05
T5W | 1.45
T5E | 3.62
T5C | 2.62
T5M | 2.97
S2H | 2.09
S2G | 3.06
S2P | 2.74
S2N | 2.96
S2A | 2.44
S2Q | 2.74
S2W | 1.64
S2R | 3.56
S2I | 1.98
S2M | 2.81
S2K | 2.95
S2C | 2.3
S2E | 3.12
S2T | 2.81
S2V | 2.38
S2Y | 1.93
S2D | 3.75
S2F | 1.82
S2L | 2.48
T4G | 3.33
T4V | 2.7

Variant | protein stability index
T4R | 3.33
T4C | 2.48
T4F | 1.77
T4A | 3.06
T4L | 3.26
T4D | 3.85
T4H | 2.81
T4K | 3.33
T4N | 3.31
T4M | 2.55
T4W | 1.35
T4E | 3.52
T4P | 3.16
T4Q | 3.82
T4Y | 2.17
T4S | 3.38
T4I | 2.53
S6H | 3.42
S6G | 3.34
S6C | 2.95
S6I | 2.58
S6F | 2.38
S6E | 3.57
S6D | 3.05
S6A | 2.88

Variants of: B2
Experiment: as above
Details: c terminus: a fixed tail appended

Variant | protein stability index
L23E | 1.78
L23I | 3.19
L23Y | 2.86
L23T | 1.94
L23P | 1.63
L23R | 2.46
L23M | 2.7
L23F | 2.96
L23C | 1.69
L23A | 2.27
L23D | 2.96
L23G | 1.91
L23K | 1.64
L23N | 2.59
L23W | 2.47
L23Q | 1.3
L23S | 2.08
L23H | 1.81
C21P | 2.55
C21N | 2.96
C21Q | 2.3
C21R | 2.05

Variant | protein stability index
C21V | 1.62
C21W | 2.44
C21M | 2.52
C21Y | 3.61
C21S | 2.67
C21T | 2.11
L22S | 2.21
L22Y | 3.57
L22T | 2.29
L22K | 2.83
L22A | 1.57
L22C | 1.89
L22N | 2.29
L22D | 2.05
L22Q | 2.44
L22M | 2.85
L22V | 3.01
L22P | 1.82
L22R | 2.03
L22H | 3.33
L22I | 3.04
L22F | 3.25

Variant | protein stability index
L22G | 2.23
L22E | 3.47
F24I | 3.21
F24V | 3.47
F24E | 2.28
F24M | 3.6
F24L | 2.95
F24H | 2.13
F24D | 2.21
F24Y | 3.33
F24R | 2.88
F24Q | 3.26
F24S | 1.81
F24N | 2.58
F24T | 2.69
F24P | 3.94
F24C | 1.99
F24G | 2.48
F24W | 2.19
F24K | 1.98

Reference: the supplement of paper PMC10567573
